Test results from article PMC5603801.

Target: PnpM-His6 (C-terminal His-tagged PnpM, LysR-type transcriptional regulator of Pseudomonas sp. strain WBC-3) (Pseudomonas sp. strain WBC-3)
Assay: SEC; analytical gel filtration of PnpM-His6 on Hiload Superdex 200 pg (1.6 x 60 cm); 10 mM Tris-HCl pH 7.5, 0.1 M NaCl, 5% glycerol; 0.5 ml/min; buffer with or without PNP; native mass from a calibration curve of standard proteins

stoichiometry N: 4
Substance: PnpM-His6 (C-terminal His-tagged PnpM, LysR-type transcriptional regulator of Pseudomonas sp. strain WBC-3) (natural protein)
